Our source for the fold increase of co-immunoprecipitation in NGF-treated over untreated cells values is publication PMC4302597.

The experiment deals with tubulin of PC12 cells (microtubule (MT) fraction, soluble tubulin (ST) fraction or cell lysate) (rat (endogenous in PC12)) (UniProt P68370). Briefly: co-IP; MT fraction of PC12 cells, untreated or treated with 100 ng/mL NGF for three days; 100 μL aliquots (~0.25–1 mg/mL) with anti-α tubulin or anti-Gβ for 1 h at 4°C, then protein A-sepharose overnight at 4°C; immunoblot for Gβ or tubulin.

“βγ subunit of heterotrimeric G proteins (Gβγ), endogenous in PC12 cells (from UniProt P54311 1-340) (complex)” showed a fold increase of co-immunoprecipitation in NGF-treated over untreated cells of 2 to 3 fold.
